{
  "source": "patent US5874272A",
  "about": "“Inosine-guanosine kinase” (Kyowa Hakko Kogyo Co., Ltd., priority 1998, dated 1999)",
  "molecules": {"B1": {"name": "inosine-guanosine kinase (Escherichia coli K-12) (protein)", "chain": "MKFPGKRKSKHYFPVNARDPLLQQFQPENETSAAWVVGIDQTLVDIEAKVDDEFIERYGLSAGHSLVIEDDVAEALYQELKQKNLITHQFAGGTIGNTMHNYSVLADDRSVLLGVMCSNIEIGSYAYRYLCNTSSRTDLNYLQGVDGPIGRCFTLIGESGERTFAISPGHMNQLRAESIPEDVIAGASALVLTSYLVRCKPGEPMPEATMKAIEYAKKYNVPVVLTLGTKFVIAENPQWWQQFLKDHVSILAMNEDEAEALTGESDPLLASDKALDWVDLVLCTAGPIGLYMAGFTEDEAKRKTQHPLLPGAIAEFNQYEFSRAMRHKDCQNPLRVYSHIAPYMGGPEKIMNTNGAGDGALAALLHDITANSYHRSNVPNSSKHKFTWLTYSSLAQVCKYANRVSYQVLNQHSPRLTRGLPEREDSLEESYWDR", "notes": "made in house; host or cells: Escherichia coli"}},
  "key": {"[1]": {"assay": "pH, temperature and storage stability of the enzyme (residual activity)", "format": "physicochemical, Escherichia coli", "method": "This enzyme is treated at 4° C. for 16 hours in an aqueous solution containing 50 mM buffer (CHES; pH 10.0-9.0, TAPS; pH 8.2, HEPES; pH 8.3-7.3 or PIPES; pH 6.6) and 5 mM […] under both conditions in the absence of KCl and in the presence of 250 mM KCl. After the treatment, the activity is determined. Where treated in a pH range of 6.6 to 9.0, the treated enzyme maintains the residual activity of 90% or more than the activity of intact standard enzyme and stably keeps its activity in a pH range of 6.6 to 9.0. The addition of KCl accelerates storage stability.\nA reaction solution composed of 20% glycerol, 50 mM Tris-hydrochloride buffer (pH 8), 5 mM β-mercaptoethanol and 100 mM NaCl is contacted with inosine-guanosine kinase in a concentration of about 10 μg protein/ml and treated at a temperature of 26° to 50° C. for 15 minutes to determine the residual activity at each temperature. As the result, since treatment at 40° C. or lower inactivates the enzyme by only 20% or less, the enzyme is stable up to 40° C. In contrast, the activity is rapidly lost by treatment at 50° C.\nAfter 6 g of the -20° C.-stored cells which had been obtained in (6) was suspended in 24 ml of purification buffer [20% glycerol, 50 mM Tris-hydrochloride buffer (pH 8) and 5 mM β-mercaptoethanol], the suspension was disrupted with a homogenizer (manufactured by Brown Biotech Co., Ltd., glass bead diameter of 0.1 mm). The homogenate was centrifuged to give about 20 ml of the supernatant. Protamine sulfate was added to the supernatant in a final concentration of 0.4% followed by centrifugation. Thus high molecular nucleic acid components were removed as precipitates. The resulting supernatant was passed through Sephadex G-50 column which had been previously equilibrated with the purification buffer. The column was eluted with the purification buffer to give about 30 ml of desalted active fraction. After the fraction was passed through DEAE Sepharose column which had been previously equilibrated with the purification buffer, 60 ml of the purification buffer containing 0.1M NaCl was added thereto. Then the desired enzyme was eluted with 200 ml of the purification buffer having an NaCl linear density slope of 0.1M to 0.6M. From the active fractions eluted, 3 ml of the fraction having the highest enzyme concentration was collected. This active fraction was passed through Sephacryl S-200 column and eluted with the purification buffer containing 0.1M NaCl. By gel filtration, the active fraction was collected. Finally 10 ml of purified enzyme (1.4 μg protein/ml) was obtained. This purified enzyme was analyzed by SDS-polyacrylamide electrophoresis but no impurity was detected. The enzyme is stably stored at -20° C. in the purification buffer containing 0.1M NaCl."}, "[2]": {"assay": "Optimum pH and optimum temperature of the enzyme activity", "format": "biochemical, Escherichia coli", "settings": "30° C., 20 minutes; PIPES, HEPES, TAPS, CHES buffers 100 mM", "method": "The activity of the inosine-guanosine kinase obtained is determined as follows. A reaction solution (hereafter referred to as reaction solution a) having a composition of 100 mM HEPES buffer (pH 7.2), 10 mM MgSO4, 50 mM KCl, 1 mM ATP and 1 mM inosine is brought into contact with the inosine-guanosine […] During the course of reaction, a part of the reaction solution is subjected to sampling intermittently. After the reaction solution is diluted to 1/20 with 0.2M NaH2 PO4 (adjusted the pH to 2.6 with H3 PO4) to stop the reaction, an amount of 5'-IMP in the stopped reaction solution is quantitatively determined by HPLC. Analysis by HPLC is made by using 0.2M NaH2 PO4 (pH 2.6) at a flow rate of 1 ml/min. as an eluting solution and Asahipak GS-320H (manufactured by Asahi Chemical Co., Ltd.) as a column. Detection of components was made by the absorbance at UV absorbance at 254 nm as an index. Quantitative determination was made by comparing absorbancy with that of the standard. […]\nIn the method for determination of inosine-guanosine kinase activity described above, the activity is determined by varying the temperature of 0° to 50° C. and 31° to 41° C. […]"}, "Km value determination [3]": {"substrate": "Nc1nc2c(ncn2[C@@H]2O[C@H](CO)[C@@H](O)[C@H]2O)c(=O)[nH]1", "assay": "Km value determination", "format": "biochemical, Escherichia coli", "settings": "other: 2 mM ATP, 10 mM MgSO4, 300 mM KCl, 0.1M HEPES buffer (pH 7.2)"}, "Km value determination [4]": {"substrate": "OC[C@H]1O[C@@H](n2cnc3c(O)ncnc32)[C@H](O)[C@@H]1O", "assay": "Km value determination", "format": "biochemical, Escherichia coli", "settings": "other: 2 mM ATP, 10 mM MgSO4, 300 mM KCl, 0.1M HEPES buffer (pH 7.2)"}},
  "data": [
    {"molecule": "B1", "values": [
      {"measurement": "residual activity after pH treatment", "setting": "[1]; 4° C., 16 hours, pH range of 6.6 to 9.0, with or without 250 mM KCl, versus intact standard enzyme", "value": "≥ 90", "unit": "%"},
      {"measurement": "temperature up to which the enzyme is stable", "setting": "[1]; 15 minutes treatment, pH 8", "value": "up to 40 °C"},
      {"measurement": "storage stability (in words)", "setting": "[1]; -20° C. in purification buffer containing 0.1M NaCl", "value": "stably stored"},
      {"measurement": "inactivation by heat treatment", "setting": "[1]; treatment at 40° C. or lower, 15 minutes, pH 8", "value": "≤ 20", "unit": "%"},
      {"measurement": "activity after heat treatment (in words)", "setting": "[1]; treatment at 50° C., 15 minutes", "value": "rapidly lost"},
      {"measurement": "optimum pH", "setting": "[2]", "value": "6.9-8.2"},
      {"measurement": "Km", "setting": "Km value determination [3]", "value": 6.1, "unit": "µM"},
      {"measurement": "Km", "setting": "Km value determination [4]", "value": 2100, "unit": "µM"}
    ]}
  ]
}
